Article PMC9482650, “Quantitative fragmentomics allow affinity mapping of interactomes” (Nature Communications, 2022)

Experiments:
Experiment in all cases: holdup assay
Set-up in all cases: key: below the threshold = too weak to quantify, mostly under pKd 3.1 to 4
Settings in all cases: plain residues with an end cap or a label only (N-terminal biotin on a linker: ttds)
AHNAK2, Q8IVF2 = target: AHNAK2, Q8IVF2
CARD14, Q9BXL6 = target: CARD14, Q9BXL6
DVL1, O14640 = target: T1, DVL1, O14640
T1 sequence (O14640 246-333, limits assumed, looked up): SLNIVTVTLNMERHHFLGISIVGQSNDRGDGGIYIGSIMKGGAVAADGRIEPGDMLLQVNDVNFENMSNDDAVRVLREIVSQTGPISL

DVL2, O14641 = target: DVL2, O14641
GIPC1, O14908 = target: T2, GIPC1, O14908
T2 sequence (O14908 128-223, limits assumed, looked up): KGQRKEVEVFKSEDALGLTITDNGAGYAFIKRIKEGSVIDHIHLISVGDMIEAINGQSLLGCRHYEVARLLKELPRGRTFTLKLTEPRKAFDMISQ

GIPC3, Q8TF64 = target: GIPC3, Q8TF64
LIMK1, P53667 = target: LIMK1, P53667
MPDZ_13, O75970 = target: T3, MPDZ_13, O75970
T3 sequence (O75970 1982-2070, limits assumed, looked up): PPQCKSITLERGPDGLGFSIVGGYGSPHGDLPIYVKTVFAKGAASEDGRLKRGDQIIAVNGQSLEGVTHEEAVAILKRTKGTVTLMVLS

PARD3B_3, Q8TEW8 = target: PARD3B_3, Q8TEW8
PDLIM3, Q53GG5 = target: T4, PDLIM3, Q53GG5
T4 sequence (Q53GG5 1-94, limits assumed, looked up): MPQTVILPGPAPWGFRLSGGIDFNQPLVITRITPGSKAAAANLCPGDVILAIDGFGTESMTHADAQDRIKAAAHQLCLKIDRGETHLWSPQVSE

PDZD2_1, O15018 = target: T5, PDZD2_1, O15018
T5 sequence (O15018 80-192, limits assumed, looked up): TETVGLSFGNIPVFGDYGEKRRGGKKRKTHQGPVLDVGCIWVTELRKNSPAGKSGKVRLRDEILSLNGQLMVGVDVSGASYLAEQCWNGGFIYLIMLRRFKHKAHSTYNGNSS

PDZD7_1, Q9H5P4 = target: T6, PDZD7_1, Q9H5P4
T6 sequence (Q9H5P4 81-178, limits assumed, looked up): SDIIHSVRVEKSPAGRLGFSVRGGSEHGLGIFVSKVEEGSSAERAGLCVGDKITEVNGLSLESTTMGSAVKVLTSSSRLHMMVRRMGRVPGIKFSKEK

PDZD8, Q8NEN9 = target: T7, PDZD8, Q8NEN9
T7 sequence (Q8NEN9 361-459, limits assumed, looked up): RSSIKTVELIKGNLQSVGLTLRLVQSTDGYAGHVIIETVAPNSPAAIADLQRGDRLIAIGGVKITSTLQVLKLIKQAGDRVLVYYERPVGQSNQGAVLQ

PDZD9, Q8IXQ8 = target: PDZD9, Q8IXQ8
PDZRN3_2, Q9UPQ7 = target: T8, PDZRN3_2, Q9UPQ7
T8 sequence (Q9UPQ7 414-513, limits assumed, looked up): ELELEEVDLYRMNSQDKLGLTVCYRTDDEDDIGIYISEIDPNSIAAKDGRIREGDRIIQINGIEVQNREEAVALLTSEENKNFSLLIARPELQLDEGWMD

PDZRN4_2, Q6ZMN7 = target: PDZRN4_2, Q6ZMN7
PREX2_2, Q70Z35 = target: T9, PREX2_2, Q70Z35
T9 sequence (Q70Z35 672-764, limits assumed, looked up): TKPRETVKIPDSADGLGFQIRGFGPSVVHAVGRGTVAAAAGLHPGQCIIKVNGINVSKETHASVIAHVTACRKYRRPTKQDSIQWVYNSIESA

SHROOM2, Q13796 = target: T10, SHROOM2, Q13796
T10 sequence (Q13796 21-118, limits assumed, looked up): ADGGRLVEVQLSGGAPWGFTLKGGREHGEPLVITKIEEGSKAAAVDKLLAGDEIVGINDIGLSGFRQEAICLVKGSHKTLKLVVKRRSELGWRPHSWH

SIPA1L3, O60292 = target: T11, SIPA1L3, O60292
T11 sequence (O60292 961-1052, limits assumed, looked up): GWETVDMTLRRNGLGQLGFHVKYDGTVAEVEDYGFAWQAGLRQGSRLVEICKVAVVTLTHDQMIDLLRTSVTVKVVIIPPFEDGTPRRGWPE

TJP3_2, O95049 = target: T12, TJP3_2, O95049
T12 sequence (O95049 190-282, limits assumed, looked up): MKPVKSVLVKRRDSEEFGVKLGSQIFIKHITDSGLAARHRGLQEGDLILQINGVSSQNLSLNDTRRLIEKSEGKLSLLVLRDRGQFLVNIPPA

USH1C_2, Q9Y6N9 = target: T13, USH1C_2, Q9Y6N9
T13 sequence (Q9Y6N9 206-303, limits assumed, looked up): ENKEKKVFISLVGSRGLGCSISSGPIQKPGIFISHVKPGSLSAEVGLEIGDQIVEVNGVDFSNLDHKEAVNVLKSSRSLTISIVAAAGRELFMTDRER

USH1C_3, Q9Y6N9 = target: T14, USH1C_3, Q9Y6N9
T14 sequence (Q9Y6N9 447-547, limits assumed, looked up): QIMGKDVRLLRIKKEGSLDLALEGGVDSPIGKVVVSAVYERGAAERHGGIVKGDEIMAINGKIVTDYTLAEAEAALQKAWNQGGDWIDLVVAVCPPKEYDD

Sequence of AHNAK2, Q8IVF2 (Q8IVF2 108-193): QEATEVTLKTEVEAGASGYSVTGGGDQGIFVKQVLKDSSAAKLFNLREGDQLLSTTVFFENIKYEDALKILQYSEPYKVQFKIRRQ
Sequence of PARD3B_3, Q8TEW8 (Q8TEW8 490-594): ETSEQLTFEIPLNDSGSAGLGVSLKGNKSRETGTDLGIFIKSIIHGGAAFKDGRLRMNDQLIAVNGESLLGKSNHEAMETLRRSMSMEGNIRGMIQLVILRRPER
Sequence of PDZD9, Q8IXQ8 (Q8IXQ8 23-120): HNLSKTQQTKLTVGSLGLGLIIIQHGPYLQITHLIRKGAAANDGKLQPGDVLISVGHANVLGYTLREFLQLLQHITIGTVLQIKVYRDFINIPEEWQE
Sequence of PDZRN4_2, Q6ZMN7 (Q6ZMN7 389-498): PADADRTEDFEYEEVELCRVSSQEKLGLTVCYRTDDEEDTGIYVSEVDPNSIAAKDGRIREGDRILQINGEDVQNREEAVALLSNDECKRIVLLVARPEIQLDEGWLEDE
Sequence of DVL2, O14641 (O14641 260-359): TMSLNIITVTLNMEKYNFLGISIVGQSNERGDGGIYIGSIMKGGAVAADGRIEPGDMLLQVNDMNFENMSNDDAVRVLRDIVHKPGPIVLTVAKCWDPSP
Sequence of CARD14, Q9BXL6 (Q9BXL6 558-663): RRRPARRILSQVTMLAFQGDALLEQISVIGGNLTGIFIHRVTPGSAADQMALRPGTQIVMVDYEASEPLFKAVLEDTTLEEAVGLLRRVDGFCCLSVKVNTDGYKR
Sequence of GIPC3, Q8TF64 (Q8TF64 107-202): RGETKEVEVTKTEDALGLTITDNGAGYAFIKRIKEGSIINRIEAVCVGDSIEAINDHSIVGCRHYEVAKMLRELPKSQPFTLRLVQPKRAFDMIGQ
Sequence of LIMK1, P53667 (P53667 155-268): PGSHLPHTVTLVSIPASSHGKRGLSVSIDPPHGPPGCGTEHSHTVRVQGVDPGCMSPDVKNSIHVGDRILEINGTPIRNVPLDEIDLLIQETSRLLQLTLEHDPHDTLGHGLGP

pKd (AHNAK2, Q8IVF2): below the threshold
pKd (CARD14, Q9BXL6): below the threshold
pKd (DVL1, O14640): below the threshold
pKd (DVL2, O14641): below the threshold
pKd (GIPC1, O14908): 4.1
pKd (GIPC3, Q8TF64): 4.21
pKd (LIMK1, P53667): 4.24
pKd (MPDZ_13, O75970): below the threshold
pKd (PARD3B_3, Q8TEW8): below the threshold
pKd (PDLIM3, Q53GG5): 4.11
pKd (PDZD2_1, O15018): 4.19
pKd (PDZD7_1, Q9H5P4): 4.25
pKd (PDZD8, Q8NEN9): below the threshold
pKd (PDZD9, Q8IXQ8): below the threshold
pKd (PDZRN3_2, Q9UPQ7): below the threshold
pKd (PDZRN4_2, Q6ZMN7): below the threshold
pKd (PREX2_2, Q70Z35): below the threshold
pKd (SHROOM2, Q13796): 4.44
pKd (SIPA1L3, O60292): below the threshold
pKd (TJP3_2, O95049): below the threshold
pKd (USH1C_2, Q9Y6N9): below the threshold
pKd (USH1C_3, Q9Y6N9): below the threshold
Binder: STLTIFETAL [ABCC4, O15439]
